Laboratory results as given in publication PMC11428563.

Biological target: VEGF as named in the paper; reagent listed as Human VEGFR2 / KDR Protein, His Tag, Acrobiosystems KDR-H5227 (human) (UniProt P35968)
Test: BLI
Conditions: BLI (Octet R4, anti-penta-His HIS1K sensors): protein loaded in phosphate buffer pH 7.4 (PlGF 2.5 ug/mL, VEGF 10 ug/mL), aptamers 0-20 uM in 1X Sartorius …

Chain of VEGF as named in the paper; reagent listed as Human VEGFR2 / KDR Protein, His Tag, Acrobiosystems KDR-H5227 (human) (P35968 20-764): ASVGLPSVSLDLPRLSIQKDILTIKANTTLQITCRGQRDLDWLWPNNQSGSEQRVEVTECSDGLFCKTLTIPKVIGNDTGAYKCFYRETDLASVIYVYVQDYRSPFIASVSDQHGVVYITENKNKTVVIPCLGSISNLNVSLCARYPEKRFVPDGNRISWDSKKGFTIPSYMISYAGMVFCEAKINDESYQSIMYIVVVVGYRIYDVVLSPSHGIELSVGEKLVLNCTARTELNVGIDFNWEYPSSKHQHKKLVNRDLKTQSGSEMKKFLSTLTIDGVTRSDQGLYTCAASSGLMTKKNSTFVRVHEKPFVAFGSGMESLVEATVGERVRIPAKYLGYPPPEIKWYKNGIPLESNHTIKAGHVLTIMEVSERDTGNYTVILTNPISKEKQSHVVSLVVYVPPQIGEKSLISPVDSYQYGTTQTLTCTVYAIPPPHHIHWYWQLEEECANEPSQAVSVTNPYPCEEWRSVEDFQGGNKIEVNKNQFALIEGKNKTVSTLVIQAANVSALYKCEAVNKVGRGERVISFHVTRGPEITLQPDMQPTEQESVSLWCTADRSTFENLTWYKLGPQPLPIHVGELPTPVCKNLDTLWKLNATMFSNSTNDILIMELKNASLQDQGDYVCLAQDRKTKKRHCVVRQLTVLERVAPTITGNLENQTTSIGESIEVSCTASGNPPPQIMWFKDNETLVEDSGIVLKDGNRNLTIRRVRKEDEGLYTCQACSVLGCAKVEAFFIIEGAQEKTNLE

| Sequence | Kd (kon 9.164e1 1/Ms, koff 4.362e-7 1/s) | Kd |
| --- | --- | --- |
| GAAAGGCGA [VEGF-Apt3] | 6.8 nM | – |
| CGAAGGGAA [VEGF-Apt1] | – | 320000 nM |
| CGAAAACAC [VEGF-Apt2] | – | 0.467 nM |
